Assays:
Assay in all cases: MST
[1] = molecular target: CCR5^QTY – SZ218a (E. coli)
CCR5^QTY – SZ190b (SF9) = molecular target: CCR5^QTY – SZ190b (SF9)
CCR5^QTY – SZ218a (SF9) = molecular target: CCR5^QTY – SZ218a (SF9)
CCR5^QTY (E. coli) = molecular target: CCR5^QTY (E. coli)
CCR5^QTY (SF9) = molecular target: CCR5^QTY (SF9)
[2] = molecular target: CCR5^QTY – SZ190b (E. coli)
[3] = molecular target: CXCR4^QTY – SZ158a (E. coli)
CXCR4^QTY (E. coli) = molecular target: CXCR4^QTY (E. coli)

Row | Substance | Kd [1] | Kd (CCR5^QTY – SZ190b (SF9)) | Kd (CCR5^QTY – SZ218a (SF9)) | Kd (CCR5^QTY (E. coli)) | Kd (CCR5^QTY (SF9)) | Kd [2] | Kd [3] | Kd (CXCR4^QTY (E. coli))
1 | CCL5 (from UniProt P13501 24-91) (ligand) | 87.7 nM | 37.8 nM | 51.7 nM | 6.8 nM | 41.1 nM | 55.8 nM |  | 
2 | HIV-1 coat glycoprotein gp41-120 |  |  |  |  |  |  | 200 nM | 7 nM
